Values of other authors, collected in PMC8226686.

Target: insulin receptor (Homo sapiens) (UniProt P06213)
Chain of UniProt P06213 (P06213 763-1382): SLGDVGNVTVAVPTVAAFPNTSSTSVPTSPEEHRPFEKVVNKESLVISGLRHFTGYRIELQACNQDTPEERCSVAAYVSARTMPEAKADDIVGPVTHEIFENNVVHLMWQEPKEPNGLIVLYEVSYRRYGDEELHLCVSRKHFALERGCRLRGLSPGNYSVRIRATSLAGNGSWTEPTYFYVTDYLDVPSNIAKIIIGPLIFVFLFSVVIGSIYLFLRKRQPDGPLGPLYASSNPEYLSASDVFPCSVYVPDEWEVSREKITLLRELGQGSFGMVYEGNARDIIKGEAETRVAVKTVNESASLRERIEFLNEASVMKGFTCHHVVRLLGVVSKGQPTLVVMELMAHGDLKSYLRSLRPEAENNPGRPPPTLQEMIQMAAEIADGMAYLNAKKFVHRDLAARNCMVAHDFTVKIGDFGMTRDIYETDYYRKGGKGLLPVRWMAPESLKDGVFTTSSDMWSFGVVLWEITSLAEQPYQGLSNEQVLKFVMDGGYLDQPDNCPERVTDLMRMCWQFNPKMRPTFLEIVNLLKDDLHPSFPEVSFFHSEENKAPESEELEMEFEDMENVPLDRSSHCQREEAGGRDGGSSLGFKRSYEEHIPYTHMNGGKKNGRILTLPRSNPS

Chain of insulin (P01308 90-110): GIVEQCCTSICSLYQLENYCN

Kd: 2.2 nM
Substance: insulin (from UniProt P01308)
